How the values were obtained:
HeLa Kyoto [1] = assay: solubility in G1/S (NP-40 vs SDS abundance) (log2 ratio); higher = more soluble; details: cell cycle stage: G1/S
HeLa Kyoto [2] = assay: melting temperature (median over replicates), in situ; higher = more thermally stable
HeLa Kyoto [3] = assay: solubility change mitosis vs G1/S (difference of NP-40 vs SDS log2 ratios) (log2 ratio difference); higher = more soluble in mitosis
HeLa Kyoto [4] = assay: thermal stability score vs G1/S (z-score of summed log2 fold changes over temperatures); higher = more thermally stable than in G1/S
[5] = cell cycle stage: early G1 (4.5 h after nocodazole release)
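Wherever melting temperature (median over replicates), in situ is given: HeLa Kyoto cells synchronized by double thymidine or nocodazole block, proteins quantified by TMT10plex mass spectrometry, three independent biological replicates.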
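Wherever solubility change mitosis vs G1/S (difference of NP-40 vs SDS log2 ratios) is given: synchronized HeLa Kyoto cells (double thymidine block for G1/S, nocodazole release for mitosis), protein amounts in NP-40 versus SDS lysates quantified by mass spectrometry, three biological replicates.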
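Wherever solubility in G1/S (NP-40 vs SDS abundance) is given: HeLa Kyoto cells arrested at G1/S by double thymidine block, proteins quantified by TMT10plex mass spectrometry in mild NP-40 versus SDS extracts, three biological replicates.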
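Wherever thermal stability score vs G1/S (z-score of summed log2 fold changes over temperatures) is given: synchronized HeLa Kyoto cells, proteins quantified by TMT10plex mass spectrometry, three biological replicates, mitosis taken 0.5 h after nocodazole release, G1/S directly after double thymidine block.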

Sequence of LARS (chain, as listed by the source): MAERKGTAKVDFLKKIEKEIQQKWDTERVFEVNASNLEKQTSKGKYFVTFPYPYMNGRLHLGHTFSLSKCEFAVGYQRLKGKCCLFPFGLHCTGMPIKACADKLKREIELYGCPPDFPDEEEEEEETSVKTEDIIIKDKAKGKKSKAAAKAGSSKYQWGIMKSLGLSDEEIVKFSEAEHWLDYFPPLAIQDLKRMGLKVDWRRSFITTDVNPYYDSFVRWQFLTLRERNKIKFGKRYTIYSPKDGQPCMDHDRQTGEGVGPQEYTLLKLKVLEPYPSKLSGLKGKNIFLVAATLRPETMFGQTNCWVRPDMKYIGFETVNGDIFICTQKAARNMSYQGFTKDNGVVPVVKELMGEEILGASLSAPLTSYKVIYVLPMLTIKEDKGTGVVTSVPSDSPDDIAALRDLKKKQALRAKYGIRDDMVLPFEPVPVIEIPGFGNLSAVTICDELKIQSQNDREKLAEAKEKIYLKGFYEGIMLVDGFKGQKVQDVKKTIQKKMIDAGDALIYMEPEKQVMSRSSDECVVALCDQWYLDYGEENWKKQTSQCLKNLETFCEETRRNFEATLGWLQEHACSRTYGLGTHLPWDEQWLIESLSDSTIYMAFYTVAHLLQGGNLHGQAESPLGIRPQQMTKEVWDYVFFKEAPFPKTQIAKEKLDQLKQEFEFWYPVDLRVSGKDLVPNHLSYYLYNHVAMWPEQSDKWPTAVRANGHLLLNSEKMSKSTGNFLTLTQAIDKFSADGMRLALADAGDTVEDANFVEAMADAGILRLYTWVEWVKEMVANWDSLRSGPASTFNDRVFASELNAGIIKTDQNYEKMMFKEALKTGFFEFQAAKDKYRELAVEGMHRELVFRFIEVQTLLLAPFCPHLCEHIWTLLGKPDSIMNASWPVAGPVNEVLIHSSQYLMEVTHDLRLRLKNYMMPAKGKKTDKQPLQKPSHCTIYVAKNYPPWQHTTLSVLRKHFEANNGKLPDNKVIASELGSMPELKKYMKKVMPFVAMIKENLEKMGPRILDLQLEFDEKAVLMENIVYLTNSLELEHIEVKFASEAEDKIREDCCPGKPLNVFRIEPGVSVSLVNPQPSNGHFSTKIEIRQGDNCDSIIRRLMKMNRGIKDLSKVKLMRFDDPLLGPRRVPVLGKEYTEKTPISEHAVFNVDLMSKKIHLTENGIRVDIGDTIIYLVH

Substance	solubility in G1/S (log2) (HeLa Kyoto [1])	melting temperature (HeLa Kyoto [2]; cell cycle stage: G1/S) [°C]	melting temperature (HeLa Kyoto [2]; cell cycle stage: mitosis) [°C]	solubility change mitosis (log2) (HeLa Kyoto [3])	thermal stability score (HeLa Kyoto [4]; [5])	thermal stability score (HeLa Kyoto [4]; cell cycle stage: mitosis)
MHFSIPETESRSGDSGGSAYVAYNIHVNGVLHCRVRYSQLLGLHEQLRKEYGANVLPAFPPKKLFSLTPAEVEQRREQLEKYMQAVRQDPLLGSSETFNSFLRRAQQETQQVPTEEVSLEVLLSNGQKVLVNVLTSDQTEDVLEAVAAKLDLPDDLIGYFSLFLVREKEDGAFSFVRKLQEFELPYVSVTSLRSQEYKIVLRKSYWDSAYDDDVMENRVGLNLLYAQTVSDIERGWILVTKEQHRQLKSLQEKVSKKEFLRLAQTLRHYGYLRFDACVADFPEKDCPVVVSAGNSELSLQLRLPGQQLREGSFRVTRMRCWRVTSSVPLPSGSTSSPGRGRGEVRLELAFEYLMSKDRLQWVTITSPQAIMMSICLQSMVDELMVKKSGGSIRKMLRRRVGGTLRRSDSQQAVKSPPLLESPDATRESMVKLSSKLSAVSLRGIGSPSTDASASDVHGNFAFEGIGDEDL [SNX17]	0.103	50.9	51.4	-0.263	1.32	0.59
MESGQPARRIAMAPLLEYERQLVLELLDTDGLVVCARGLGADRLLYHFLQLHCHPACLVLVLNTQPAEEEYFINQLKIEGVEHLPRRVTNEITSNSRYEVYTQGGVIFATSRILVVDFLTDRIPSDLITGILVYRAHRIIESCQEAFILRLFRQKNKRGFIKAFTDNAVAFDTGFCHVERVMRNLFVRKLYLWPRFHVAVNSFLEQHKPEVVEIHVSMTPTMLAIQTAILDILNACLKELKCHNPSLEVEDLSLENAIGKPFDKTIRHYLDPLWHQLGAKTKSLVQDLKILRTLLQYLSQYDCVTFLNLLESLRATEKAFGQNSGWLFLDSSTSMFINARARVYHLPDAKMSKKEKISEKMEIKEGEETKKELVLESNPKWEALTEVLKEIEAENKESEALGGPGQVLICASDDRTCSQLRDYITLGAEAFLLRLYRKTFEKDSKAEEVWMKFRKEDSSKRIRKSHKRPKDPQNKERASTKERTLKKKKRKLTLTQMVGKPEELEEEGDVEEGYRREISSSPESCPEEIKHEEFDVNLSSDAAFGILKEPLTIIHPLLGCSDPYALTRVLHEVEPRYVVLYDAELTFVRQLEIYRASRPGKPLRVYFLIYGGSTEEQRYLTALRKEKEAFEKLIREKASMVVPEEREGRDETNLDLVRGTASADVSTDTRKAGGQEQNGTQQSIVVDMREFRSELPSLIHRRGIDIEPVTLEVGDYILTPEMCVERKSISDLIGSLNNGRLYSQCISMSRYYKRPVLLIEFDPSKPFSLTSRGALFQEISSNDISSKLTLLTLHFPRLRILWCPSPHATAELFEELKQSKPQPDAATALAITADSETLPESEKYNPGPQDFLLKMPGVNAKNCRSLMHHVKNIAELAALSQDELTSILGNAANAKQLYDFIHTSFAEVVSKGKGKK [ERCC4]	-0.215	49.6	50.4	-0.274	0.278	0.608
MNQKLLKLENLLRFHTIYRQLHSLCQRRALRQWRHGFSSAYPVWTAQLCAWPWPTDVLTGAALSQYRLLVTKKEEGPWKSQLSSTKSKKVVEVWIGMTIEELARAMEKNTDYVYEALLNTDIDIDSLEADSHLDEVWIKEVITKAGMKLKWSKLKQDKVRKNKDAVRRPQADPALLTPRSPVVTIMGHVDHGKTTLLDKFRKTQVAAVETGGITQHIGAFLVSLPSGEKITFLDTPGHAAFSAMRARGAQVTDIVVLVVAADDGVMKQTVESIQHAKDAQVPIILAVNKCDKAEADPEKVKKELLAYDVVCEDYGGDVQAVPVSALTGDNLMALAEATVALAEMLELKADPNGPVEGTVIESFTDKGRGLVTTAIIQRGTLRKGSVLVAGKCWAKVRLMFDENGKTIDEAYPSMPVGITGWRDLPSAGEEILEVESEPRAREVVDWRKYEQEQEKGQEDLKIIEEKRKEHKEAHQKAREKYGHLLWKKRSILRFLERKEQIPLKPKEKRERDSNVLSVIIKGDVDGSVEAILNIIDTYDASHECELELVHFGVGDVSANDVNLAETFDGVIYGFNVNAGNVIQQSAAKKGVKIKLHKIIYRLVEDLQEELSSRLPCAVEEHPVGEASILATFSVTEGKKKVPVAGCRVQKGQLEKQKKFKLTRNGHVIWKGSLTSLKHHKDDISIVKTGMDCGLSLDEDNMEFQVGDRIVCYEEKQIQAKTSWDPGF [MTIF2]	-0.146	49.7	49.1	-0.0734	-0.325	0.122
MAEPLQPDPGAAEDAAAQAVETPGWKAPEDAGPQPGSYEIRHYGPAKWVSTSVESMDWDSAIQTGFTKLNSYIQGKNEKEMKIKMTAPVTSYVEPGSGPFSESTITISLYIPSEQQFDPPRPLESDVFIEDRAEMTVFVRSFDGFSSAQKNQEQLLTLASILREDGKVFDEKVYYTAGYNSPVKLLNRNNEVWLIQKNEPTKENE [HEBP2]	0.297	53.1	53.6	-0.0442	0.153	-0.49
MSLRQRLAQLVGRLQDPQKVARFQRLCGVEAPPRRSADRREDEKAEAPLAGDPRLRGRQPGAPGGPQPPGSDRNQCPAKPDGGGAPNGVRNGLAAELGPASPRRAGALRRNSLTGEEGQLARVSNWPLYCLFCFGTELGNELFYILFFPFWIWNLDPLVGRRLVVIWVLVMYLGQCTKDIIRWPRPASPPVVKLEVFYNSEYSMPSTHAMSGTAIPISMVLLTYGRWQYPLIYGLILIPCWCSLVCLSRIYMGMHSILDIIAGFLYTILILAVFYPFVDLIDNFNQTHKYAPFIIIGLHLALGIFSFTLDTWSTSRGDTAEILGSGAGIACGSHVTYNMGLVLDPSLDTLPLAGPPITVTLFGKAILRILIGMVFVLIIRDVMKKITIPLACKIFNIPCDDIRKARQHMEVELPYRYITYGMVGFSITFFVPYIFFFIGIS [SGPP1]	-0.0125	53.9	53.4	-0.122	1.45	1.19
MSLFGTTSGFGTSGTSMFGSATTDNHNPMKDIEVTSSPDDSIGCLSFSPPTLPGNFLIAGSWANDVRCWEVQDSGQTIPKAQQMHTGPVLDVCWSDDGSKVFTASCDKTAKMWDLSSNQAIQIAQHDAPVKTIHWIKAPNYSCVMTGSWDKTLKFWDTRSSNPMMVLQLPERCYCADVIYPMAVVATAERGLIVYQLENQPSEFRRIESPLKHQHRCVAIFKDKQNKPTGFALGSIEGRVAIHYINPPNPAKDNFTFKCHRSNGTNTSAPQDIYAVNGIAFHPVHGTLATVGSDGRFSFWDKDARTKLKTSEQLDQPISACCFNHNGNIFAYASSYDWSKGHEFYNPQKKNYIFLRNAAEELKPRNKK [RAE1]	-0.0787	49.8	49.1	0.128	-1.34	-0.473
MVQKESQATLEERESELSSNPAASAGASLEPPAAPAPGEDNPAGAGGAAVAGAAGGARRFLCGVVEGFYGRPWVMEQRKELFRRLQKWELNTYLYAPKDDYKHRMFWREMYSVEEAEQLMTLISAAREYEIEFIYAISPGLDITFSNPKEVSTLKRKLDQVSQFGCRSFALLFDDIDHNMCAADKEVFSSFAHAQVSITNEIYQYLGEPETFLFCPTEYCGTFCYPNVSQSPYLRTVGEKLLPGIEVLWTGPKVVSKEIPVESIEEVSKIIKRAPVIWDNIHANDYDQKRLFLGPYKGRSTELIPRLKGVLTNPNCEFEANYVAIHTLATWYKSNMNGVRKDVVMTDSEDSTVSIQIKLENEGSDEDIETDVLYSPQMALKLALTEWLQEFGVPHQYSSRQVAHSGAKASVVDGTPLVAAPSLNATTVVTTVYQEPIMSQGAALSGEPTTLTKEEEKKQPDEEPMDMVVEKQEETDHKNDNQILSEIVEAKMAEELKPMDTDKESIAESKSPEMSMQEDCISDIAPMQTDEQTNKEQFVPGPNEKPLYTAEPVTLEDLQLLADLFYLPYEHGPKGAQMLREFQWLRANSSVVSVNCKGKDSEKIEEWRSRAAKFEEMCGLVMGMFTRLSNCANRTILYDMYSYVWDIKSIMSMVKSFVQWLGCRSHSSAQFLIGDQEPWAFRGGLAGEFQRLLPIDGANDLFFQPPPLTPTSKVYTIRPYFPKDEASVYKICREMYDDGVGLPFQSQPDLIGDKLVGGLLSLSLDYCFVLEDEDGICGYALGTVDVTPFIKKCKISWIPFMQEKYTKPNGDKELSEAEKIMLSFHEEQEVLPETFLANFPSLIKMDIHKKVTDPSVAKSMMACLLSSLKANGSRGAFCEVRPDDKRILEFYSKLGCFEIAKMEGFPKDVVILGRSL [MGEA5]	-0.0358	52.8	52.4	-0.112	-1.09	-0.671
KIF14	-0.297	49.1	45.5	-0.0203	-0.945	-2.77
PCM1	-0.73	49.8	50.3	0.65	-0.276	0.507
MHRRGVGAGAIAKKKLAEAKYKERGTVLAEDQLAQMSKQLDMFKTNLEEFASKHKQEIRKNPEFRVQFQDMCATIGVDPLASGKGFWSEMLGVGDFYYELGVQIIEVCLALKHRNGGLITLEELHQQVLKGRGKFAQDVSQDDLIRAIKKLKALGTGFGIIPVGGTYLIQSVPAELNMDHTVVLQLAEKNGYVTVSEIKASLKWETERARQVLEHLLKEGLAWLDLQAPGEAHYWLPALFTDLYSQEITAEEAREALP [SNF8]	0.377	52.9	51.5	0.0161	-0.788	-0.397
MLALISRLLDWFRSLFWKEEMELTLVGLQYSGKTTFVNVIASGQFSEDMIPTVGFNMRKVTKGNVTIKIWDIGGQPRFRSMWERYCRGVNAIVYMIDAADREKIEASRNELHNLLDKPQLQGIPVLVLGNKRDLPNALDEKQLIEKMNLSAIQDREICCYSISCKEKDNIDITLQWLIQHSKSRRS [ARL8B]	-0.0397	55.2	56	-0.232	-1.93	-1.85
PPIF	0.731	52.2	52.1	0.14	0.427	-1.83
MAAAGAFRLRRAASALLLRSPRLPARELSAPARLYHKKVVDHYENPRNVGSLDKTSKNVGTGLVGAPACGDVMKLQIQVDEKGKIVDARFKTFGCGSAIASSSLATEWVKGKTVEEALTIKNTDIAKELCLPPVKLHCSMLAEDAIKAALADYKLKQEPKKGEAEKK [ISCU]	0.467	53.3	54	0.0125	-1.67	-2.36
MPHIDNDVKLDFKDVLLRPKRSTLKSRSEVDLTRSFSFRNSKQTYSGVPIIAANMDTVGTFEMAKVLCKFSLFTAVHKHYSLVQWQEFAGQNPDCLEHLAASSGTGSSDFEQLEQILEAIPQVKYICLDVANGYSEHFVEFVKDVRKRFPQHTIMAGNVVTGEMVEELILSGADIIKVGIGPGSVCTTRKKTGVGYPQLSAVMECADAAHGLKGHIISDGGCSCPGDVAKAFGAGADFVMLGGMLAGHSESGGELIERDGKKYKLFYGMSSEMAMKKYAGGVAEYRASEGKTVEVPFKGDVEHTIRDILGGIRSTCTYVGAAKLKELSRRTTFIRVTQQVNPIFSEAC [GMPR2]	0.0286	56.3	59.4	-0.137	-0.68	-2.3
MSFLKSFPPPGPAEGLLRQQPDTEAVLNGKGLGTGTLYIAESRLSWLDGSGLGFSLEYPTISLHALSRDRSDCLGEHLYVMVNAKFEEESKEPVADEEEEDSDDDVEPITEFRFVPSDKSALEAMFTAMCECQALHPDPEDEDSDDYDGEEYDVEAHEQGQGDIPTFYTYEEGLSHLTAEGQATLERLEGMLSQSVSSQYNMAGVRTEDSIRDYEDGMEVDTTPTVAGQFEDADVDH [CLNS1A]	-0.106	51.7	52.6	0.0376	-0.798	-0.57
LARS	-0.189	49	49.1	-0.14	-0.182	2.83
MEAVLNELVSVEDLLKFEKKFQSEKAAGSVSKSTQFEYAWCLVRSKYNDDIRKGIVLLEELLPKGSKEEQRDYVFYLAVGNYRLKEYEKALKYVRGLLQTEPQNNQAKELERLIDKAMKKDGLVGMAIVGGMALGVAGLAGLIGLAVSKSKS [FIS1]	0.15	54.2	53.8	0.251	-2.36	-0.553

Reference: the supplement of paper PMC5998384
